According to the supplement of paper PMC12338614:
± gives the uncertainty stated by the source.

B1: library; numbered along this chain (parent)
chain: MEVVDPQQLGMFTEGELMSVGMDTFIHRIDSTEVIYQPRRKRAKLIGKYLMGDLLGEGSYGKVKEVLDSETLCRRAVKILKKKKLRRIPNGEANVKKEIQLLRRLRHKNVIQLVDVLYNEEKQKMYMVMEYCVCGMQEMLDSVPEKRFPVCQAHGYFCQLIDGLEYLHSQGIVHKDIKPGNLLLTTGGTLKISDLGVAEALHPFAADDTCRTSQGSPAFQPPEIANGLDTFSGFKVDIWSAGVTLYNITTGLYPFEGDNIYKLFENIGKGSYAIPGDCGPPLSDLLKGMLEYEPAKRFSIRQIRQHSWFRKKHPPAEAPVPIPPSPDTKDRWRSMTVVPYLEDLHGADEDEDLFDIEDDIIYTQDFTVPGQVPEEEASHNGQRRGLPKAVCMNGTEAAQLSTKSRAEGRAPNPARKACSASSKIRRLSACKQQ

Variants of: B1
Experiment: STK11 functional score (HeLa growth suppression), rescaled enrichment; synonymous median = 1, nonsense median = 0 (normalised score)
Details: with HeLa; variant type: missense
Outline: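 In HeLa, Bxb1 integrated POPCode codon-randomised libraries of codon-optimised STK11 at an AAVS1 landing pad; three regions were each transfected three times. Integrants, marked as BFP-negative and mCherry-positive, were FACS-sorted 4–5 days after electroporation and expanded for about two weeks before tiled gDNA amplicons were sequenced on NextSeq (~2 million reads per tile). Each functional score is a post/pre-selection log ratio corrected to wild type, rescaled to the synonymous and nonsense medians, and merged across codons and replicate transfections, with error estimated by bootstrapping.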

| Variant | STK11 functional score |
| --- | --- |
| MEVVDPQQLGMFTEGELMSVGMDTFIHRIDSTEVIYQPRRKRAKLIGKYLMGDLLGEGSYGKVKEVLDSETLCRRAVKILKKKKLRRIPNGEANVKKEIQLLRRLRHKNVIQLVDVLYNEEKQKMYMVMEYCVCGMQEMLDSVPEKRFPVCQAHGYFCQLIDGLEYLHSQGIVHKDIKPGNLLLTTGGTLKISDLGVAEALHPFAADDTCRTSQGSPAFQPPEIANGLDTFSGFKVDIWSAGVTLYNITTGLYPFEGDSIYKLFENIGKGSYAIPGDCGPPLSDLLKGMLEYEPAKRFSIRQIRQHSWFRKKHPPAEAPVPIPPSPDTKDRWRSMTVVPYLEDLHGADEDEDLFDIEDDIIYTQDFTVPGQVPEEEASHNGQRRGLPKAVCMNGTEAAQLSTKSRAEGRAPNPARKACSASSKIRRLSACKQQ [N259S] | 1.34 ± 0.38 |
| MEVVDPQQLGMFTEGELMSVGMDTFIHRIDSTEVIYQPRRKRAKLIGKYLMGDLLGEGSYGKVKEVLDSETLCRRAVKILKKKKLRRIPNGEANVKKEIQLLRRLRHKNVIQLVDVLYNEEKQKMYMVMEYCVCGMQEMLDSVPEKRFPVCQAHGYFCQLIDGLEYLHSQGIVHKDIKPGNLLLTTGGTLKISDLGVAEALHPFAADDTCRTSQGSPAFQPPEIANGLDTFSGFKVDIWSAGVTLYNITTGLYPFEGDTIYKLFENIGKGSYAIPGDCGPPLSDLLKGMLEYEPAKRFSIRQIRQHSWFRKKHPPAEAPVPIPPSPDTKDRWRSMTVVPYLEDLHGADEDEDLFDIEDDIIYTQDFTVPGQVPEEEASHNGQRRGLPKAVCMNGTEAAQLSTKSRAEGRAPNPARKACSASSKIRRLSACKQQ [N259T] | 1.32 ± 0.51 |
| MEVVDPQQLGMFTEGELMSVGMDTFIHRIDSTEVIYQPRRKRAKLIGKYLMGDLLGEGSYGKVKEVLDSETLCRRAVKILKKKKLRRIPNGEANVKKEIQLLRRLRHKNVIQLVDVLYNEEKQKMYMVMEYCVCGMQEMLDSVPEKRFPVCQAHGYFCQLIDGLEYLHSQGIVHKDIKPGNLLLTTGGTLKISDLGVAEALHPFAADDTCRTSQGSPAFQPPEIANGLDTFSGFKVDIWSAGVTLYNITTGLYPFEGDWIYKLFENIGKGSYAIPGDCGPPLSDLLKGMLEYEPAKRFSIRQIRQHSWFRKKHPPAEAPVPIPPSPDTKDRWRSMTVVPYLEDLHGADEDEDLFDIEDDIIYTQDFTVPGQVPEEEASHNGQRRGLPKAVCMNGTEAAQLSTKSRAEGRAPNPARKACSASSKIRRLSACKQQ [N259W] | 0.92 ± 0.36 |
| MEVVDPQQLGMFTEGELMSVGMDTFIHRIDSTEVIYQPRRKRAKLIGKYLMGDLLGEGSYGKVKEVLDSETLCRRAVKILKKKKLRRIPNGEANVKKEIQLLRRLRHKNVIQLVDVLYNEEKQKMYMVMEYCVCGMQEMLDSVPEKRFPVCQAHGYFCQLIDGLEYLHSQGIVHKDIKPGNLLLTTGGTLKISDLGVAEALHPFAADDTCRTSQGSPAFQPPEIANGLDTFSGFKVDIWSAGVTLYNITTGLYPFEGDYIYKLFENIGKGSYAIPGDCGPPLSDLLKGMLEYEPAKRFSIRQIRQHSWFRKKHPPAEAPVPIPPSPDTKDRWRSMTVVPYLEDLHGADEDEDLFDIEDDIIYTQDFTVPGQVPEEEASHNGQRRGLPKAVCMNGTEAAQLSTKSRAEGRAPNPARKACSASSKIRRLSACKQQ [N259Y] | 1.1 ± 0.1 |
| MEVVDPQQLGMFTEGELMSVGMDTFIHRIDSTEVIYQPRRKRAKLIGKYLMGDLLGEGSYGKVKEVLDSETLCRRAVKILKKKKLRRIPNGEANVKKEIQLLRRLRHKNVIQLVDVLYNEEKQKMYMVMEYCVCGMQEMLDSVPEKRFPVCQAHGYFCQLIDGLEYLHSQGIVHKDIKPGNLLLTTGGTLKISDLGVAEALHPFAADDTCRTSQGSPAFQPPEIANGLDTFSGFKVDIWSAGVTLYNITTGLYPFEGDVIYKLFENIGKGSYAIPGDCGPPLSDLLKGMLEYEPAKRFSIRQIRQHSWFRKKHPPAEAPVPIPPSPDTKDRWRSMTVVPYLEDLHGADEDEDLFDIEDDIIYTQDFTVPGQVPEEEASHNGQRRGLPKAVCMNGTEAAQLSTKSRAEGRAPNPARKACSASSKIRRLSACKQQ [N259V] | 0.437 ± 0.1 |
| MEVVDPQQLGMFTEGELMSVGMDTFIHRIDSTEVIYQPRRKRAKLIGKYLMGDLLGEGSYGKVKEVLDSETLCRRAVKILKKKKLRRIPNGEANVKKEIQLLRRLRHKNVIQLVDVLYNEEKQKMYMVMEYCVCGMQEMLDSVPEKRFPVCQAHGYFCQLIDGLEYLHSQGIVHKDIKPGNLLLTTGGTLKISDLGVAEALHPFAADDTCRTSQGSPAFQPPEIANGLDTFSGFKVDIWSAGVTLYNITTGLYPFEGDNMYKLFENIGKGSYAIPGDCGPPLSDLLKGMLEYEPAKRFSIRQIRQHSWFRKKHPPAEAPVPIPPSPDTKDRWRSMTVVPYLEDLHGADEDEDLFDIEDDIIYTQDFTVPGQVPEEEASHNGQRRGLPKAVCMNGTEAAQLSTKSRAEGRAPNPARKACSASSKIRRLSACKQQ [I260M] | 1.32 ± 0.26 |
| MEVVDPQQLGMFTEGELMSVGMDTFIHRIDSTEVIYQPRRKRAKLIGKYLMGDLLGEGSYGKVKEVLDSETLCRRAVKILKKKKLRRIPNGEANVKKEIQLLRRLRHKNVIQLVDVLYNEEKQKMYMVMEYCVCGMQEMLDSVPEKRFPVCQAHGYFCQLIDGLEYLHSQGIVHKDIKPGNLLLTTGGTLKISDLGVAEALHPFAADDTCRTSQGSPAFQPPEIANGLDTFSGFKVDIWSAGVTLYNITTGLYPFEGDNFYKLFENIGKGSYAIPGDCGPPLSDLLKGMLEYEPAKRFSIRQIRQHSWFRKKHPPAEAPVPIPPSPDTKDRWRSMTVVPYLEDLHGADEDEDLFDIEDDIIYTQDFTVPGQVPEEEASHNGQRRGLPKAVCMNGTEAAQLSTKSRAEGRAPNPARKACSASSKIRRLSACKQQ [I260F] | 0.763 ± 0.1 |
